Measurements taken from publication PMC13602928.

Legend:
[1] = target: stripped Anabaena flos-aquae (Ana) gas vesicles (GV shell, native GvpC removed) (Anabaena flos-aquae) (UniProt P10397)
[2] = target: stripped Anabaena flos-aquae (Ana) gas vesicles (GV shell, native GvpC removed) (Anabaena flos-aquae) (UniProt P10397); remark: listed apart in the source

Chain of UniProt P10397 (P10397 whole entry): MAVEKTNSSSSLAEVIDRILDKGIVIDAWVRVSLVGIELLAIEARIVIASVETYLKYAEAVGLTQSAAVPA

Substance	midpoint collapse pressure of UReKA1 GVs (pressurized absorbance spectroscopy), after PKA phosphorylation [1]	nonlinear (xAM) ultrasound signal of purified UReKA1 GVs at 350 kPa, with PKA against without PKA [1]	time course of the nonlinear ultrasound signal of UReKA1 GVs after PKA addition; time to maximal contrast (signal first detectable after 2-3 h) [2]	midpoint collapse pressure of UReKA2 GVs (pressurized absorbance spectroscopy), after PKA phosphorylation [1]	nonlinear (xAM) ultrasound signal of purified UReKA2 GVs at 489 kPa, with PKA against without PKA [1]	time course of the nonlinear ultrasound signal of UReKA2 GVs after PKA addition; time to maximal contrast (signal first detectable after 2-3 h) [2]
phosphorylated UReKA1 GvpC (pThr60)	227 kPa	4.5 fold	8 h	–	–	–
phosphorylated UReKA2 GvpC (pThr81)	–	–	–	283 kPa	12.9 fold	12 h
